Laboratory results from patent US20230043813A1, “METHODS FOR TARGETED CELL DEPLETION” (The Regents of the University of California, priority 2019, published 2023).

Key:
[1] = test system: GFP or RFP expression in E. coli MG1655; experiment: E. coli CRISPRi GFP/RFP repression assay; format: cell-based
Procedure: Assays were performed using methods like those described by Oakes et al. (2016).
Endpoint Assay: Cells were picked in biological triplicate into 96 well plates containing 500 μL EZ MOPS plus Carb and CM. Plates were grown in 37° C. shakers for twelve hours. Next, cells were diluted 1:1000 in 500 μL EZ MOPS plus Carb, CM, IPTG and aTc. Two hundred nM aTc was used to induce Cas9-CPs or ProCas9s and 50 μM IPTG levels was used to induce the proteases in a 2 mL deep well blocks and shaken at 750 rpm at 37° C. After an eight-twelve-hour induction and growth period, 20 μL of cells were added to 80 μL of water and put into a 96-well microplate reader (Tecan M1000) at 37° C. and read immediately. Each well was measured for optical density at 600 nm and GFP or RFP fluorescence. GFP expression was normalized by dividing it with OD600. In the case of the time course assays, 150 μL of the 1:1000 dilution was used and placed into a black walled clear bottom plate (3631-Corning) and directly into the Tecan M1000 for a 130× 600 s kinetic cycle of reading. For E. coli single cell analysis, cells from the endpoint time course were run on a Sony SH800 to capture 100,000 events per sample.

[2] = test system: GFP reporter in HEK-RT1 cells; experiment: rapid mammalian genome editing reporter assay (HEK-RT1, GFP disruption); format: cell-based, human
Text: To establish a rapid and quantitative way to reliably assess genome editing efficiency from various CRISPR-Cas constructs in mammalian cells, a fluorescence-based reporter assay was built. […] To quantify this effect, HEK293T cells were stably transduced with a retroviral vector (LMP-Pten.1524) constitutively expressing GFP (Fellmann et al., 2013), and established monoclonal derivatives.
Specifically, inducible monoclonal HEK293T-based genome editing reporter cells, referred to as “HEK-RT1,” were established in a two-step procedure. In the first step, puromycin resistant monoclonal HEK-RT3-4 reporter cells were generated (Park et al., 2018). In brief, HEK293T human embryonic kidney cells were transduced at low-copy with the amphotropic pseudotyped RT3GEPIR-Ren.713 retroviral vector (Fellmann et al., 2013), comprising an all-in-one Tet-On system enabling doxycycline-controlled GFP expression. After puromycin (2.0 μg/ml) selection of transduced HEK239 Ts, 36 clones were isolated and individually assessed for i) growth characteristics, ii) homogeneous morphology, iii) sharp fluorescence peaks of doxycycline (1 μg/ml) inducible GFP expression, iv) relatively low fluorescence intensity to favor clones with single-copy reporter integration, and v) high transfectability.
Since HEK-RT3-4 are puromycin resistant, in the second step, monoclonal HEK-RT1 and analogous sister reporter cell lines were derived by transient transfection of HEK-RT3-4 cells with a pair of vectors encoding Cas9 and guide RNAs targeting puromycin (sgPuro5, sgPuro6), followed by identification of monoclonal derivatives that are puromycin sensitive. In total, eight clones were isolated and individually assessed for i) growth characteristics, ii) homogeneous morphology, iii) doxycycline (1 μg/ml) inducible and reversible GFP fluorescence, and v) puromycin and hygromycin B sensitivity. […] The HEK-RT1 cell line was chosen as rapid mammalian genome editing reporter system for all further assays.
A guide RNA targeting the GFP fluorescence reporter (sgGFP9) was compared to a non-targeting control (sgNT). […] GFP expression in HEK-RT1 reporter cells was induced for 24-48 hour using doxycycline (1 μg/ml; Sigma-Aldrich), at the indicated days post-editing.

WNV protease = biological target: T1, WNV protease (Kunjin virus, UniProt P14335); experiment: immunoblot of ProCas9Flavi activation in HEK293T; format: cell-based, human; settings: HEK293T co-transfected with WNV protease
T1 construct: expressed in transfected cells; host or cells: HEK293T (293FT)
T1 sequence (P14335 1506-2124): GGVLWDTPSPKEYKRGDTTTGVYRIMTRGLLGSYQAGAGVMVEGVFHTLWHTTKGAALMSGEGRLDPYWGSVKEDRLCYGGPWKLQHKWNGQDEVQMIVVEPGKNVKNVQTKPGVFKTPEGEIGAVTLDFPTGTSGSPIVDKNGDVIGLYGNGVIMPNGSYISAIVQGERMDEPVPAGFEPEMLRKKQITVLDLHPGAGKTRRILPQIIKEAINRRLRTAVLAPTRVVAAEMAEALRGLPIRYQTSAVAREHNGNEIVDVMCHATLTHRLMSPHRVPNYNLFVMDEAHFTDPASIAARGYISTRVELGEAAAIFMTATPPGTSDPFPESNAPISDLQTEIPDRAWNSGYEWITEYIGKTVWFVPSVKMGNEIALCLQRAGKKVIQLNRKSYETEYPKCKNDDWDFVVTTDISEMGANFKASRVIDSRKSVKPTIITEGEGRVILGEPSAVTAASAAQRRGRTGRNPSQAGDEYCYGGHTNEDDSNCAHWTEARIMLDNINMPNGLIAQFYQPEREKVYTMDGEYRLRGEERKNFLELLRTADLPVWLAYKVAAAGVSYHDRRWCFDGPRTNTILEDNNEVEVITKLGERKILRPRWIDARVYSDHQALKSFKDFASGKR
T1 sequence (P14335 1375-1505): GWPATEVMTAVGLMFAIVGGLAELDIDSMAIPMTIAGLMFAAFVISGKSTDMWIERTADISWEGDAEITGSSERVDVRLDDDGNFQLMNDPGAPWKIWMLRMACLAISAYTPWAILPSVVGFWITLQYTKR
Procedure: HEK293T (293FT; Thermo Fisher Scientific) were co-transfected with the indicated plasmids expressing Cas9-wt or ProCas9-Flavi and plasmids expressing dTEV or WNV protease. HEK293T cells were split to reach a confluency of 70%-90% at time of transfection. For transfections in 6-well plates, 1 μg Cas9-sgRNA vector and 0.75 μg protease vector (if applicable) were mixed in 0.4 mL Opti-MEM, followed by addition of 5.25 μg polyethylenimine (PEI; Polysciences #23966). After 20-30 min incubation at room temperature, the transfection reactions were dispersed over the HEK293T cells. Media was changed 12-hour post-transfection. At 36-hour post-transfection, HEK293T were washed in ice-cold PBS and scraped from the plates. Cell pellets were lysed in Laemmli buffer (62.5 mMTris-HCl pH 6.8, 10% glycerol, 2% SDS, 5% 2-mercaptoethanol). Equal amounts of protein were separated on 4%-20% Mini-PROTEAN TGX gels (Bio-Rad, #456-1095) and transferred to 0.2 μm PVDF membranes (Bio-Rad, #162-0177). Blots were blocked in 5% milk in TBST 0.1% (TBS+[…]) for 1 hour; all antibodies were incubated in 5% milk in TBST 0.1% at 4° C. overnight; blots were washed in TBST 0.1%. The abundance of b-actin (ACTB) was monitored to ensure equal loading. […]

PCSK9 locus = experiment: editing at the endogenous PCSK9 locus (T7E1 assay, TIDE); format: cell-based, human; settings: guide sgPCSK9-4, WNV protease vs dTEV; A549 and HAP1
Procedure: Unless otherwise noted, error bars indicate the standard deviation of triplicates, and significance was assessed by comparing samples to their respective controls using unpaired, two-tailed t tests (alpha=0.05). Genome editing quantification using TIDE was carried out as recommended (Brinkman et al., 2014). In brief, indels ranging from −10 to +10 nucleotides were quantified. Parental cells were used as reference for normalization. When reporting TIDE editing efficiencies, only indels with p values <0.01 in at least one replicate were considered true.

B1: CP199: Cas9 circular permutant, new start site aa 199 (SEQ ID NO:44); linker varies by experiment (protein)
chain: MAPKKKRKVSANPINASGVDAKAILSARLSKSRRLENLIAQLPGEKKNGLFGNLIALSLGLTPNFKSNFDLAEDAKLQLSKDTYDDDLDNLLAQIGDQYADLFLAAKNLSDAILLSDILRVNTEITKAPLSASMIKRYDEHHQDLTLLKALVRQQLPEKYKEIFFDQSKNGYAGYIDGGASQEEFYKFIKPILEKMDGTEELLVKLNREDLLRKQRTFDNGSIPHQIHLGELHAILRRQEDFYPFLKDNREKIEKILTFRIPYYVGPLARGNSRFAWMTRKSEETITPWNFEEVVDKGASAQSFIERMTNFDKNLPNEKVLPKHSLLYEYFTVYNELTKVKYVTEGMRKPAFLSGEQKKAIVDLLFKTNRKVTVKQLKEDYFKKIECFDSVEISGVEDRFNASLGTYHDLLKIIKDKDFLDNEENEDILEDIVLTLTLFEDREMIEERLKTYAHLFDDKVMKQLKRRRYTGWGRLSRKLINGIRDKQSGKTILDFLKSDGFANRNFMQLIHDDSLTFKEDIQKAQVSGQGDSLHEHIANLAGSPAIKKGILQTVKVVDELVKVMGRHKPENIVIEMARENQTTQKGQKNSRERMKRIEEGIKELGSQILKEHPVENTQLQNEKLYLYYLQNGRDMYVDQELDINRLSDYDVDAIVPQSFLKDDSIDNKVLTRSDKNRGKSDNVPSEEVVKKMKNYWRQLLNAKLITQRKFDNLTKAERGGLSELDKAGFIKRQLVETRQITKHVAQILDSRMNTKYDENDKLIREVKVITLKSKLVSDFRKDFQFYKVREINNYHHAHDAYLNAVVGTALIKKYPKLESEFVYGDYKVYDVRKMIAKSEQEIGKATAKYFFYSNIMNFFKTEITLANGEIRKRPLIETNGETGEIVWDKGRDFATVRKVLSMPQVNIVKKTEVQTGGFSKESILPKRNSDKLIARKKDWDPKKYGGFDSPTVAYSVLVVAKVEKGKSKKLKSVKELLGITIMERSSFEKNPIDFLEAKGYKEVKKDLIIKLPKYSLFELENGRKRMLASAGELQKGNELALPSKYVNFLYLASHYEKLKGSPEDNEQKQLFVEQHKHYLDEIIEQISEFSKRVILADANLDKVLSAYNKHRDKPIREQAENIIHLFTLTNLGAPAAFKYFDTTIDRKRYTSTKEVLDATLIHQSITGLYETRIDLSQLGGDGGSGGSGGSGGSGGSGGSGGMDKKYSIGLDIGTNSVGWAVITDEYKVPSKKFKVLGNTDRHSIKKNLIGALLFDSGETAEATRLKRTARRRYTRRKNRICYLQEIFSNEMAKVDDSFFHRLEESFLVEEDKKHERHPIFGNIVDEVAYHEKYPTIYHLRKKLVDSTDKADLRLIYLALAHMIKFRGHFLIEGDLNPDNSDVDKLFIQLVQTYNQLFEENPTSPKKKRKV
[1]; 7-amino acid TEV cleavage site (ENLYFQ/S) as linker, active TEV vs dTEV
  GFP repression activity with TEV protease: switched from completely off to fully on

B2: ProCas9Flavi: ProCas9 with WNV linker sequence KQKKR/GGK, Flavivirus protease-sensitive caged Cas9 (SEQ ID NO:50) (protein)
chain: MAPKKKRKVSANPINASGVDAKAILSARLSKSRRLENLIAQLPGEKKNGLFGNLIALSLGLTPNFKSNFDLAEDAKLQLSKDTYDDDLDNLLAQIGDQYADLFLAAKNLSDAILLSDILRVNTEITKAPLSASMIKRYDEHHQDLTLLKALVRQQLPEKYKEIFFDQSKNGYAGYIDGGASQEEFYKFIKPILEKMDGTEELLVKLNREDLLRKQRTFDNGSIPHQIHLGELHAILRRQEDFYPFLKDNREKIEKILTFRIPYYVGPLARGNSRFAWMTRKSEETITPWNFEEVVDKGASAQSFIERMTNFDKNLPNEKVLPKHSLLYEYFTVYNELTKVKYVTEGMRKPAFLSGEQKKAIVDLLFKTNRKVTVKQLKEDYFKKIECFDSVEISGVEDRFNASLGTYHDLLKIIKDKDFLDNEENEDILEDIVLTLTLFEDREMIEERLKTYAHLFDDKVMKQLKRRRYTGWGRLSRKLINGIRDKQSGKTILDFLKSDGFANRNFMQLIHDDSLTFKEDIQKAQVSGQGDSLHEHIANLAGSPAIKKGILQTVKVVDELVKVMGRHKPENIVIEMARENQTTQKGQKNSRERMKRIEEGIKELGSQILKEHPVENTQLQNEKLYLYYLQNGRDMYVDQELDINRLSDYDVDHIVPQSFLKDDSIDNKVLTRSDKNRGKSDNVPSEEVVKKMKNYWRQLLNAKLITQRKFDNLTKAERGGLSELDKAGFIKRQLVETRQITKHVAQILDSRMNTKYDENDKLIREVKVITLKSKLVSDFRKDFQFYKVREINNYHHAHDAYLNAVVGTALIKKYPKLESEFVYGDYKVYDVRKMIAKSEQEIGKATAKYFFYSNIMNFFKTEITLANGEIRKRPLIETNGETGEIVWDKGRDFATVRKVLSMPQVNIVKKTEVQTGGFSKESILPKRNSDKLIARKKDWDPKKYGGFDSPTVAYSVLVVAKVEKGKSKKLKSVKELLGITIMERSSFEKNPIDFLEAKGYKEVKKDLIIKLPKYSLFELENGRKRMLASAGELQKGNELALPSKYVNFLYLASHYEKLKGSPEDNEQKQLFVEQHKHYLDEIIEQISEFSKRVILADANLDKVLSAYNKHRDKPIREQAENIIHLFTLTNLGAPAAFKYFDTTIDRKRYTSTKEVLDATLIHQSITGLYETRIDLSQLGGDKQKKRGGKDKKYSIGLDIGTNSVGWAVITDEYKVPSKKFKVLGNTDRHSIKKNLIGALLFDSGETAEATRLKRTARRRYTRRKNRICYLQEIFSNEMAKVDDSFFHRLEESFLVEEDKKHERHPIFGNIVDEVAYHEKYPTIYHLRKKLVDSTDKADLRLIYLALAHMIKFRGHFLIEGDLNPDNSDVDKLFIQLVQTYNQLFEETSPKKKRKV
[2]; transient transfection, with active or deactivated proteases
  GFP disruption: GFP disruption only in the presence of the active proteases
[1]; Cas9-CP199 with protease cleavage site as CP linker
  ProCas9 activation by co-expressed viral proteases: activated by NS2B-NS3 proteases from both Zika and WNV
WNV protease
  activation (cleavage into two subunits) by immunoblot: vast majority of vigilant ProCas9Flavi was activated and observed as two distinct subunits

B3: EF1a-ProCas9Flavi: ProCas9Flavi expressed from the strong full-length EF1a promoter, stably integrated lentiviral vector (protein)
chain: B2 chain
[2]; stable expression of WNV protease, out to 8 days
  genome editing: about 35%
[2]; stably integrated ProCas9, ZIKV, WNV proteases, mTagBFP2-positive cells
  genome editing efficiency after transient protease transfection: highest genome editing efficiency
[2]; stably transduced WNV protease (FIG. 4F)
  genome editing: over 25%
PCSK9 locus
  protease-sensitive editing at the PCSK9 locus (T7E1): clear genome editing in the presence of WNV protease
